B1: Azoarcus group I ribozyme (parent)
chain: GUGCCUUGCGCCGGGAAACCACGCAAGGGAUGGUGUCAAAUUCGGCGAAACCUAAGCGCCCGCCCGGGCGUAUGGCAACGCCGAGCCAAGCUUCGGCGCCUGCGCCGAUGAAGGUGUAGAGACUAGACGGCACCCACCUAAGGCAAACGCUAUGGUGAAGGCAUAGUCCAGGGAGUGGCGAAAGUCACACAAACCGG

Variants of: B1
Experiment: reverse-splicing fitness (ratio to wild type); higher = more active; in vitro selection; Mg2+ level not given
Outline: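 An in vitro group I ribozyme library with randomized positions was T7-transcribed and gel-purified. In triplicate, 10 pmol RNA in EPPS pH 7.5 was reacted with 50 pmoles of a 30-nt RNA substrate for 1 h at 37 °C across several added MgCl2 levels (1–48 mM), then stopped with EDTA. Products were reverse transcribed from a substrate-complementary primer, PCR-amplified and sequenced (HiSeq 4000). Fitness is a variant's read proportion after selection over that before, normalised to wild type.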

Row | Variant | reverse-splicing fitness
1 | GUGCCUUGCGCCGGGAAACCACGCAAGGGAUGGUGUCAAAUUCGGCGAAACCUAAGCGCCCGCCCGGGCGUAUGGCAACGCAGAGCCAAGCUUCGGCGCCUGCGCCGAUGGAGGUGUAGCGACUAGACGGCACCCACCUAAGGCCAACGGUAUGGUGAAGGCAUAGUCCAGGGAGCGGCGAAAGUCACACAAACCGG [C82A A111G A120C A145C C150G U176C] | 0.00712
2 | GUGCCUUGCGCCGGGAAACCACGCAAGGGAUGGUGUCAAAUUCGGCGAAACCUAAGCGCCCGCCCGGGCGUAUGGCAACGCAGAGCCAAGCUUCGGCGCCUGCGCCGAUGGAGGUGUAGCGACUAGACGGCACCCACCUAAGGCCAACGGUAUGGUGAAGGCAUAGUCGAGGGAGAGGCGAAAGUCACACAAACCGG [C82A A111G A120C A145C C150G C169G U176A] | 0.00979
3 | GUGCCUUGCGCCGGGAAACCACGCAAGGGAUGGUGUCAAAUUCGGCGAAACCUAAGCGCCCGCCCGGGCGUAUGGCAACGCAGAGCCAAGCUUCGGCGCCUGCGCCGAUGGAGGUGUAGCGACUAGACGGCACCCACCUAAGGCCAACGGUAUGGUGAAGGCAUAGUCGAGGGAGGGGCGAAAGUCACACAAACCGG [C82A A111G A120C A145C C150G C169G U176G] | 0.00568
4 | GUGCCUUGCGCCGGGAAACCACGCAAGGGAUGGUGUCAAAUUCGGCGAAACCUAAGCGCCCGCCCGGGCGUAUGGCAACGCAGAGCCAAGCUUCGGCGCCUGCGCCGAUGGAGGUGUAGCGACUAGACGGCACCCACCUAAGGCCAACGGUAUGGUGAAGGCAUAGUCGAGGGAGCGGCGAAAGUCACACAAACCGG [C82A A111G A120C A145C C150G C169G U176C] | 0.00812
5 | GUGCCUUGCGCCGGGAAACCACGCAAGGGAUGGUGUCAAAUUCGGCGAAACCUAAGCGCCCGCCCGGGCGUAUGGCAACGCAGAGCCAAGCUUCGGCGCCUGCGCCGAUGGAGGUGUAGCGACUAGACGGCACCCACCUAAGGCCAACGAUAUGGUGAAGGCAUAGUCGAGGGAGUGGCGAAAGUCACACAAACCGG [C82A A111G A120C A145C C150A C169G] | 0.00832
6 | GUGCCUUGCGCCGGGAAACCACGCAAGGGAUGGUGUCAAAUUCGGCGAAACCUAAGCGCCCGCCCGGGCGUAUGGCAACGCAGAGCCAAGCUUCGGCGCCUGCGCCGAUGGAGGUGUAGCGACUAGACGGCACCCACCUAAGGCCAACGAUAUGGUGAAGGCAUAGUCUAGGGAGUGGCGAAAGUCACACAAACCGG [C82A A111G A120C A145C C150A C169U] | 0.00853
7 | GUGCCUUGCGCCGGGAAACCACGCAAGGGAUGGUGUCAAAUUCGGCGAAACCUAAGCGCCCGCCCGGGCGUAUGGCAACGCAGAGCCAAGCUUCGGCGCCUGCGCCGAUGGAGGUGUAGCGACUAGACGGCACCCACCUAAGGCCAACGAUAUGGUGAAGGCAUAGUCAAGGGAGGGGCGAAAGUCACACAAACCGG [C82A A111G A120C A145C C150A C169A U176G] | 0.00558
8 | GUGCCUUGCGCCGGGAAACCACGCAAGGGAUGGUGUCAAAUUCGGCGAAACCUAAGCGCCCGCCCGGGCGUAUGGCAACGCAGAGCCAAGCUUCGGCGCCUGCGCCGAUGGAGGUGUAGCGACUAGACGGCACCCACCUAAGGCCAACGAUAUGGUGAAGGCAUAGUCAAGGGAGCGGCGAAAGUCACACAAACCGG [C82A A111G A120C A145C C150A C169A U176C] | 0.0105
9 | GUGCCUUGCGCCGGGAAACCACGCAAGGGAUGGUGUCAAAUUCGGCGAAACCUAAGCGCCCGCCCGGGCGUAUGGCAACGCAGAGCCAAGCUUCGGCGCCUGCGCCGAUGGAGGUGUAGCGACUAGACGGCACCCACCUAAGGCCAACGAUAUGGUGAAGGCAUAGUCAAGGGAGAGGCGAAAGUCACACAAACCGG [C82A A111G A120C A145C C150A C169A U176A] | 0.0178
10 | GUGCCUUGCGCCGGGAAACCACGCAAGGGAUGGUGUCAAAUUCGGCGAAACCUAAGCGCCCGCCCGGGCGUAUGGCAACGCAGAGCCAAGCUUCGGCGCCUGCGCCGAUGGAGGUGUAGCGACUAGACGGCACCCACCUAAGGCCAACGAUAUGGUGAAGGCAUAGUCCAGGGAGCGGCGAAAGUCACACAAACCGG [C82A A111G A120C A145C C150A U176C] | 0.0151
11 | GUGCCUUGCGCCGGGAAACCACGCAAGGGAUGGUGUCAAAUUCGGCGAAACCUAAGCGCCCGCCCGGGCGUAUGGCAACGCAGAGCCAAGCUUCGGCGCCUGCGCCGAUGGAGGUGUAGCGACUAGACGGCACCCACCUAAGGCCAACGAUAUGGUGAAGGCAUAGUCCAGGGAGAGGCGAAAGUCACACAAACCGG [C82A A111G A120C A145C C150A U176A] | 0.0102
12 | GUGCCUUGCGCCGGGAAACCACGCAAGGGAUGGUGUCAAAUUCGGCGAAACCUAAGCGCCCGCCCGGGCGUAUGGCAACGCAGAGCCAAGCUUCGGCGCCUGCGCCGAUGGAGGUGUAGCGACUAGACGGCACCCACCUAAGGCCAACGAUAUGGUGAAGGCAUAGUCCAGGGAGGGGCGAAAGUCACACAAACCGG [C82A A111G A120C A145C C150A U176G] | 0.00529
13 | GUGCCUUGCGCCGGGAAACCACGCAAGGGAUGGUGUCAAAUUCGGCGAAACCUAAGCGCCCGCCCGGGCGUAUGGCAACGCAGAGCCAAGCUUCGGCGCCUGCGCCGAUGGAGGUGUAGCGACUAGACGGCACCCACCUAAGGCCAACGGUAUGGUGAAGGCAUAGUCUAGGGAGUGGCGAAAGUCACACAAACCGG [C82A A111G A120C A145C C150G C169U] | 0.009
14 | GUGCCUUGCGCCGGGAAACCACGCAAGGGAUGGUGUCAAAUUCGGCGAAACCUAAGCGCCCGCCCGGGCGUAUGGCAACGCAGAGCCAAGCUUCGGCGCCUGCGCCGAUGGAGGUGUAGCGACUAGACGGCACCCACCUAAGGCCAACGGUAUGGUGAAGGCAUAGUCGAGGGAGUGGCGAAAGUCACACAAACCGG [C82A A111G A120C A145C C150G C169G] | 0.00705
15 | GUGCCUUGCGCCGGGAAACCACGCAAGGGAUGGUGUCAAAUUCGGCGAAACCUAAGCGCCCGCCCGGGCGUAUGGCAACGCAGAGCCAAGCUUCGGCGCCUGCGCCGAUGGAGGUGUAGCGACUAGACGGCACCCACCUAAGGCCAACGGUAUGGUGAAGGCAUAGUCAAGGGAGUGGCGAAAGUCACACAAACCGG [C82A A111G A120C A145C C150G C169A] | 0.0102

Source: the RNAGym collection of RNA variant scans (doi:10.1093/molbev/msab373)
